Assay [1] addresses Full-length human CXCR3 receptor protein with C-terminal 6xHis and HPC4 tag (human) (UniProt P49682). As to the kind of experiment: SPR (Biacore whole receptor assay), receptor on NTA chip, 1:1 fit. (In general: In SPR one partner is held on a chip, and binding of the other changes the refractive index at the surface.)
The target of assay [2] is human CXCR3 (full length, splice variant A) expressed on transfected cells (human) (UniProt P49682).
For assay [3] the target is unchanged. The source holds these as a separate data set.
For assay [4] the target is unchanged. As to the kind of experiment: cell-based or functional assay.

As usually defined, the Kd is the equilibrium constant for the complex coming apart. The koff is the first-order rate constant of dissociation. The low end stands for a long-lived complex, the high end for a short-lived complex. The kon is the second-order rate constant of association. Low values mean slow association, high ones fast association.

In assay [1], “mouse CXCL11 (from UniProt Q9JHH5 22-100) (ligand)” displayed a Kd of 1.17 nM, a koff of 0.00426 s⁻¹ and a kon of 3.69e+06 M⁻¹ s⁻¹.

For the substance CTRL IgG1 (antibody), in assay [2], the IC50, inhibition of CXCL11-induced calcium mobilization in hCXCR3 HEK cells (FLIPR); isotype control worked out at 27.6 µg/mL.

Turning to “human CXCL10 (from UniProt P02778 22-98) (ligand)”, in assay [1], the dissociation constant (Kd) came out at 9.76 nM, the koff stood at 0.00127 s⁻¹ and the on-rate (kon) stood at 136000 M⁻¹ s⁻¹.

In assay [1], “human CXCL11 (from UniProt O14625 22-94) (ligand)” gave a Kd of 1.72 nM, a koff of 0.00441 s⁻¹ and a kon of 2.58e+06 M⁻¹ s⁻¹.

Take “Anti-hCXCR3 mAb clone 1C6 (Becton, Dickinson catalog #557183) (antibody)”: in assay [1], the dissociation constant (Kd) was determined as 3.51 nM, the dissociation rate constant (koff) was determined as 0.000142 s⁻¹ and the kon turned out to be 41100 M⁻¹ s⁻¹. In assay [2], the IC50, inhibition of CXCL11-induced calcium mobilization in hCXCR3 HEK cells (FLIPR); bar labelled '+ CTRL' (panels A to C of the same sheet print '1C6 (+ CTRL)') is 0.12 µg/mL. Also, the IC50 (read off the curve), inhibition of CXCL10-induced calcium mobilization [all five panels] in assay [3] came to 3 µg/mL. Further, the IC50 (M), calcium mobilization to CXCL10 in human CXCR3-Gqi4qi4 CHO cells in assay [4] stood at 3.14e-06 M.

These data come from US20140377806A1.
